Read-outs that look alike come from different tables or passages of the source. Square brackets hold non-standard residues; d marks the D form. Ends that are not written are not given here. Peptide text beside a SMILES is read from it. 4Pal = N[C@@H](Cc1ccncc1)C(=O)O; Aad = N[C@@H](CCCC(=O)O)C(=O)O; Sec = N[C@@H](C[SeH])C(=O)O; Orn = NCCC[C@H](N)C(=O)O

Data on ten compounds can be found in paper PMC11400632, “Substrate selectivity and inhibition of the human lysyl hydroxylase JMJD7” (Protein Science : A Publication of the Protein Society, 2024).

Test [1] has as its target T1, human JMJD7 (Homo sapiens, UniProt P0C870).
T1 construct: human JMJD7 (residues 1–316) with an N‐terminal His6‐tag; His6 (N); made in house; host or cells: Escherichia coli Rosetta (DE3)
The test can be described thus: MALDI-TOF MS JMJD7 inhibition assay. Format: biochemical. How it is done: Due to signal overlaps between some DRG1 peptides and the reference DRG1‐Lys substrate, we synthesized a shorter reference substrate peptide (DRG1‐Lys, residues 17–40) for use in the MS‐based inhibition assays. Synthetic DRG1 peptides (residues 16–40, 10 or 50 μM) were preincubated with JMJD7 (200 nM) for 15 min, after which time the DRG1‐Lys substrate (residues 17–40, 5 μM), 2OG (10 μM), FAS […] and LAA […] were added, and the reaction were carried out for 25 min at room temperature. Most of the DRG1 peptides were not active as JMJD7 inhibitors at 10 μM (residual activity of JMJD7 >50%) (Figure S41a,b), with exceptions including the DRG1‐Orn, DRG1‐hGln and DRG1‐4pyrA peptides.
Single point screening assays were as follows; initially, JMJD7 (200 nM) and substituted DRG1 peptide (10 or 50 μM) were incubated for 15 min, followed by the addition of a mixture of the DRG1‐Lys substrate (5 μM), 2OG (10 μM), FAS (10 μM) and LAA (100 μM) in a final volume of 50 μL in Tris‐buffer (pH 7.5) and incubated for additional 25 min at room temperature. […] Reactions were quenched by the addition of 10% (v/v) formic acid and mixed 1:1 with CHCCA matrix (1:1 v/v MeCN:H2O) then analyzed by MALDI‐TIMS‐TOF MS. JMJD7 activity was determined by calculating the integral of hydroxylated peptide and normalized to a control reaction in absence of potential inhibitory peptides. Every experiment was performed in duplicate (n = 2), error bars are reported as SE.

The target of test [2] is T1, human JMJD7. The experiment in a line: MALDI-TOF MS JMJD7 inhibition assay. Format: biochemical. The source holds these as a separate data set.
For test [3], the target named is T1, human JMJD7. The experiment in a line: LC-MS assay of JMJD7-catalyzed hydroxylation/oxidation of DRG1 peptides. In kind it is biochemical. The following applies: 10 μM FAS, 100 μM LAA. How it is done: Initial assays were carried out by incubation of purified recombinant (Markolovic et al., [2018]) human JMJD7 (2 μM) in the presence of a DRG1 derived peptide (10 μM), 2OG (10 μM), ferrous ammonium sulfate (FAS, 10 μM), and L‐ascorbate (LAA, 100 μM) in Tris buffer at pH 7.5 for 2 h at room temperature. Potential conversion to a hydroxylated product (+16 Da mass shift) was monitored by liquid‐chromatography‐mass‐spectrometry (LC–MS). […] The assay results also implied that DRG1‐Orn was hydroxylated, but to a lower extent (~21%) than DRG1‐Lys. […] The alcohol‐containing peptide hydroxynorleucine (DRG1‐HNle), was hydroxylated at relatively low levels (~24%), implying that H‐bonding interactions and positive charge of the N^ɛ‐amino group of lysine are important for efficient binding and catalysis, but that a neutral alcohol can still be accommodated at the active site (Figure 3f) (Markolovic et al., [2018]).
All reagents were procured from Sigma Aldrich. 2‐Oxoglutarate (2OG, 10 mM) and L‐ascorbic acid (LAA, 50 mM) solutions were prepared freshly by dissolving the solids in deionized water. Ferrous ammonium sulfate (FAS) solution was prepared freshly by dissolving FAS at 400 mM in 20 mM HCl with subsequent dilution to 1 mM using deionized water. JMJD7 assays using DRG1 (16–40) based peptides were performed with the following conditions: (i) 2 or 5 μM JMJD7, 10 μM DRG1 peptide, 100 μM LAA, 10 μM FAS, 10 μM 2OG in mM 50 Tris‐buffer (pH 7.5), (ii) 2 μM JMJD7, 10 μM DRG1 peptide, 100 μM LAA, 10 μM FAS, 20 μM 2OG in mM 50 Tris‐buffer (pH 7.5). Reactions were initiated by addition of enzyme to the cosubstrate/substrate solution in a final reaction volume of 50 μL with 2 h incubation at room temperature. A positive control reaction containing enzyme and a validated peptide substrate was included in all screening studies. After 2 h, reactions were stopped by addition of 5 μL of 10% (v/v) LC–MS grade formic acid (Fisher Scientific) and transferred to a 96 well plate (Agilent). Intact mass peptide analysis was performed by LC–MS using an Agilent 1290 infinity II LC system equipped with an Agilent 1290 multisampler and an Agilent 1290 high speed pump and connected to an Agilent 6550 accurate mass iFunnel quadrupole time of flight (Q‐TOF) mass spectrometer. The reaction mixture (4 μL) was injected and loaded onto a ZORBAX RRHD Eclipse Plus C18 column (Agilent). Solvent A consisted of LC–MS grade water containing 0.1% (v/v) formic acid and solvent B consisted of MeCN containing 0.1% (v/v) formic acid. Peptides were separated using a step wise gradient (0 min – 95% solvent A, 1.0 min – 80% solvent A, 3.0 min – 45% solvent A, 4.0 min – 45% solvent A, 5.0 min – 0% solvent A, 6.0 min – 0% solvent A, 7.0 min – 95% solvent A). This was followed by a 3 min elution with 95% solvent A to re‐equilibrate the column. Flow rates were 0.2 mL/min. The mass spectrometer was operated in the positive ion mode with a drying gas temperature (280°C), drying gas flow rate (13 L min^−1), nebulizer pressure (40 psig), sheath gas temperature (350°C), sheath gas flow rate (12 L min^−1), capillary voltage (4000 V), nozzle voltage (1000 V). Data were analyzed using Agilent MassHunter Qualitative Analysis (Version B.07.00) software.

Test [4] has as its target human Jumonji-C (JmjC) domain-containing protein 7 (JMJD7), residues 1-316 (human) (UniProt P0C870).
The target is the same in test [5]. The source holds these as a separate data set.
[6] abbreviates: 200 nM JMJD7 preincubated 15 min with peptide (1 nM–150 μM), 5 μM DRG1-Lys (17–40) substrate, 10 μM 2OG, 25 min, room temperature, Tris pH 7.5, MALDI MS, duplicate (n = 2), ± SE, read-out: IC50 (JMJD7 inhibition, with 15 min preincubation).

T1 sequence (P0C870 whole entry, the tested form may be a part): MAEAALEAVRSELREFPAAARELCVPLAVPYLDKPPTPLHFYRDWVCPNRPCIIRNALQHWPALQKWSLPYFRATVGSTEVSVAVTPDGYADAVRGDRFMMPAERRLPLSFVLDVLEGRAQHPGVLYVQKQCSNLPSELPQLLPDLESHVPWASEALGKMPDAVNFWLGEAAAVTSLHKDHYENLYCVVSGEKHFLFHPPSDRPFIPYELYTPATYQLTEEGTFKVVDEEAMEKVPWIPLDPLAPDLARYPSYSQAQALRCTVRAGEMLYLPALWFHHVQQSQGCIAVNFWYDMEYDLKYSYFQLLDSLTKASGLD
Sequence of human Jumonji-C (JmjC) domain-containing protein 7 (JMJD7), residues 1-316 (human) (P0C870 whole entry, the tested form may be a part): as above
Sequence of DRG1-4pyrA peptide (DRG1 residues 16-40, 4pyrA in place of Lys22) (peptide): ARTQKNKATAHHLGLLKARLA

“DRG1‐Cys (residues 19–25): shorter peptide fragment DRG1-Cys (residues 19–25) (QKNCATA-NH2)”: the “inhibition of JMJD7 by the shorter peptide fragment” value in the test with human JMJD7 [1] (standard conditions) is recorded as “No inhibition”.

A word on the IC50: it is the concentration needed to halve the response being measured. With `CC(C)C[C@H](NC(=O)CNC(=O)[C@H](CC(C)C)NC(=O)[C@H](Cc1c[nH]cn1)NC(=O)[C@H](Cc1c[nH]cn1)NC(=O)[C@H](C)NC(=O)[C@@H](NC(=O)[C@H](C)NC(=O)[C@H](C[SeH])NC(=O)[C@H](CC(N)=O)NC(=O)[C@H](CCCCN)NC(=O)[C@H](CCC(N)=O)NC(=O)[C@@H](NC(=O)[C@H](CCCNC(=N)N)NC(=O)[C@H](C)N)[C@@H](C)O)[C@@H](C)O)C(=O)N[C@@H](CC(C)C)C(=O)N[C@@H](CCCCN)C(=O)N[C@@H](C)C(=O)N[C@@H](CCCNC(=N)N)C(=O)N[C@@H](CC(C)C)C(=O)N[C@@H](C)C(=O)N[C@@H](CCCCN)C(=O)N[C@@H](CC(C)C)C(=O)N[C@@H](CCCNC(=N)N)C(=O)N[C@@H](CCCNC(=N)N)C(N)=O` [DRG1‐Sec] (H-ARTQKN[Sec]ATAHHLGLLKARLAKLRR-NH2), the IC50 on human JMJD7 [2] (setting [6]) was 1.46 µM; on human JMJD7 [2] (same assay conditions but without preincubation, read-out: IC50 (JMJD7 inhibition, without preincubation)) it was 2.8 µM.

In the case of `CC(C)C[C@H](NC(=O)CNC(=O)[C@H](CC(C)C)NC(=O)[C@H](Cc1c[nH]cn1)NC(=O)[C@H](Cc1c[nH]cn1)NC(=O)[C@H](C)NC(=O)[C@@H](NC(=O)[C@H](C)NC(=O)[C@H](CCCN)NC(=O)[C@H](CC(N)=O)NC(=O)[C@H](CCCCN)NC(=O)[C@H](CCC(N)=O)NC(=O)[C@@H](NC(=O)[C@H](CCCNC(=N)N)NC(=O)[C@H](C)N)[C@@H](C)O)[C@@H](C)O)C(=O)N[C@@H](CC(C)C)C(=O)N[C@@H](CCCCN)C(=O)N[C@@H](C)C(=O)N[C@@H](CCCNC(=N)N)C(=O)N[C@@H](CC(C)C)C(=O)N[C@@H](C)C(=O)N[C@@H](CCCCN)C(=O)N[C@@H](CC(C)C)C(=O)N[C@@H](CCCNC(=N)N)C(=O)N[C@@H](CCCNC(=N)N)C(N)=O` [DRG1‐Orn] (H-ARTQKN[Orn]ATAHHLGLLKARLAKLRR-NH2), the “extent of hydroxylation by JMJD7 at higher 2OG concentration” value on human JMJD7 [3] (2 μM JMJD7, 10 μM peptide, 20 μM 2OG, pH 7.5, 2 h incubation) is listed as ~ 31%. Moreover, the “extent of hydroxylation (+16 Da) by JMJD7” value on human JMJD7 [3] (standard conditions: 2 μM JMJD7, 10 μM DRG1 peptide, 10 μM 2OG, Tris pH 7.5, 2 h, room temperature) is reported as ~ 21%. The “single point inhibition of JMJD7 at 50 μM peptide” value on human JMJD7 [1] (50 μM DRG1 peptide, 200 nM JMJD7, 15 min preincubation, 5 μM DRG1-Lys substrate) is “clear inhibition”. At human JMJD7 [2] (setting [6]), the 50% inhibitory concentration (IC50) amounted to 14 µM.

“DRG1-hGln peptide (DRG1 residues 16-40, hGln in place of Lys22)”: in test [4], the IC50 of inhibition of JMJD7-catalysed (200 nM) hydroxylation of the DRG1-Lys substrate (residues 17-40, 5 μM), MALDI-TOF MS, 15 min preincubation is 7.68 µM.

For the compound `CC(C)C[C@H](NC(=O)CNC(=O)[C@H](CC(C)C)NC(=O)[C@H](Cc1c[nH]cn1)NC(=O)[C@H](Cc1c[nH]cn1)NC(=O)[C@H](C)NC(=O)[C@@H](NC(=O)[C@H](C)NC(=O)[C@H](CCCC(N)=O)NC(=O)[C@H](CC(N)=O)NC(=O)[C@H](CCCCN)NC(=O)[C@H](CCC(N)=O)NC(=O)[C@@H](NC(=O)[C@H](CCCNC(=N)N)NC(=O)[C@H](C)N)[C@@H](C)O)[C@@H](C)O)C(=O)N[C@@H](CC(C)C)C(=O)N[C@@H](CCCCN)C(=O)N[C@@H](C)C(=O)N[C@@H](CCCNC(=N)N)C(=O)N[C@@H](CC(C)C)C(=O)N[C@@H](C)C(=O)N[C@@H](CCCCN)C(=O)N[C@@H](CC(C)C)C(=O)N[C@@H](CCCNC(=N)N)C(=O)N[C@@H](CCCNC(=N)N)C(N)=O` [DRG1‐hGln] (H-ARTQKN[Aad](NH2)ATAHHLGLLKARLAKLRR-NH2), the IC50 at human JMJD7 [2] (setting [6]) turned out to be 7.68 µM.

“DRG1-Orn peptide (DRG1 residues 16-40, Orn in place of Lys22)” returned an IC50 of inhibition of JMJD7-catalysed (200 nM) hydroxylation of the DRG1-Lys substrate (residues 17-40, 5 μM), MALDI-TOF MS, 15 min preincubation in test [4] of 14 µM.

On to “DRG1-Sec peptide (DRG1 residues 16-40, selenocysteine in place of Lys22)”, for which, in test [5], the IC50 of inhibition of JMJD7-catalysed hydroxylation of the DRG1-Lys substrate, MALDI-TOF MS, 15 min preincubation worked out at 1.46 µM and the IC50 of inhibition of JMJD7-catalysed hydroxylation of the DRG1-Lys substrate, MALDI-TOF MS, without preincubation came out at 2.8 µM.

In test [5], “DRG1-Cys peptide (DRG1 residues 16-40, Cys in place of Lys22)” had an IC50 of inhibition of JMJD7-catalysed hydroxylation of the DRG1-Lys substrate, MALDI-TOF MS, 15 min preincubation of 1.25 µM and an IC50 of inhibition of JMJD7-catalysed hydroxylation of the DRG1-Lys substrate, MALDI-TOF MS, without preincubation of 16 µM.

The compound “DRG1-4pyrA peptide (DRG1 residues 16-40, 4pyrA in place of Lys22)” displayed an IC50 of inhibition of JMJD7-catalysed (200 nM) hydroxylation of the DRG1-Lys substrate (residues 17-40, 5 μM), MALDI-TOF MS, 15 min preincubation in test [4] of 15.2 µM.

With `CC(C)C[C@H](NC(=O)CNC(=O)[C@H](CC(C)C)NC(=O)[C@H](Cc1c[nH]cn1)NC(=O)[C@H](Cc1c[nH]cn1)NC(=O)[C@H](C)NC(=O)[C@@H](NC(=O)[C@H](C)NC(=O)[C@H](Cc1ccncc1)NC(=O)[C@H](CC(N)=O)NC(=O)[C@H](CCCCN)NC(=O)[C@H](CCC(N)=O)NC(=O)[C@@H](NC(=O)[C@H](CCCNC(=N)N)NC(=O)[C@H](C)N)[C@@H](C)O)[C@@H](C)O)C(=O)N[C@@H](CC(C)C)C(=O)N[C@@H](CCCCN)C(=O)N[C@@H](C)C(=O)N[C@@H](CCCNC(=N)N)C(=O)N[C@@H](CC(C)C)C(=O)N[C@@H](C)C(=O)N[C@@H](CCCCN)C(=O)N[C@@H](CC(C)C)C(=O)N[C@@H](CCCNC(=N)N)C(=O)N[C@@H](CCCNC(=N)N)C(N)=O` [DRG1‐4pyrA] (H-ARTQKN[4Pal]ATAHHLGLLKARLAKLRR-NH2), the IC50 at human JMJD7 [2] (setting [6]) turned out to be 15.2 µM.
